Measurements reported in patent publication US12173330B2, “Method for producing hydroxy-L-pipecolic acid” (API CORPORATION, priority 2015, dated 2024).

Experiments:
[1] = Production of hydroxy-L-pipecolic acids by culture of recombinant E. coli expressing the hydroxylase (Example 5); assay type: cell-based, E. coli BL21 (DE3); details: for Accumulation of (4S)-hydroxy-L-proline: 120 hours; for Accumulation amount of (4S)-hydroxy-L-proline / Accumulation amount of (5S)-Hydroxy-L-pipecolic acid / Accumulation amount of L-pipecolic acid: after 120 hours, 20 mmol/L L-pipecolic acid in medium, 30° C.
[2] = Catalytic efficiency (kcat/Km) of L-pipecolic acid hydroxylases with L-proline (Example 3); assay type: biochemical; details: for hydroxy-L-proline detected from the reaction solution: L-proline as substrate, Example 3, in words
Experimental: Each of the obtained recombinant E. coli strains in a volume of 0.6 mL was recovered by centrifugation and was suspended in 0.5 mL of 50 mmol/L MES (2-morpholinoethanesulfonic acid) buffer at pH 6. The container containing the suspension was placed in ice-water bath to perform sonication and then spun at 12,000 rpm. The obtained supernatant was used as an enzyme solution in Example 3.
Subsequently, 0.05 mL of 1 mol/L hydrochloric acid was added to stop the reaction.
The reaction using L-proline as a substrate was carried out under the same conditions as in the above reaction using L-pipecolic acid.
Then, each reaction solution was treated using 1-fluoro-2,4-dinitrophenyl-5-L-alaninamide (FDAA) (manufactured by Tokyo Chemical Industry Co., Ltd.) according to a method as described below, to obtain a FDAA-derivative of a hydroxy-L-pipecolic acid or hydroxy-L-proline included in each reaction solution.
To the reaction solution after stopping the reaction, 0.05 mL of 1 mol/L sodium hydroxide was added for neutralization. After centrifuging the solution at 12,000 rpm, 15 μL of 0.5 mol/L borate buffer (pH 9) was added to 15 μL of the obtained supernatant, followed by further addition of 30 μL of 20 mmol/L FDAA solution in acetone and incubation at 40° C. for one hour. Subsequently, 10 μL of 1 mol/L hydrochloric acid was added to stop the derivatization reaction. The resulting solution was diluted by adding 80 μL of methanol, and then centrifuged at 12,000 rpm. The obtained supernatant was used as a FDAA derivative solution.
The amount of produced hydroxy-L-pipecolic acid or hydroxy-L-proline was analyzed with UPLC-MS (manufactured by Waters Co.).
An aliquot containing 5 μg of total protein was taken from each enzyme solution obtained in Example 2, loaded on each lane, and then electrophoresed on polyacrylamide gel. The obtained electrophoretogram was analyzed using the image analysis software Image Lab3.0 (manufactured by Bio-Rad Laboratories, Inc.) to determine the content of each hydroxylase. A carbonic anhydrase (manufactured by Sigma-Aldrich Co. LLC) was used as a quantification reference. The content of a hydroxylase of interest was calculated from the signal intensity of the enzyme of interest, based on the signal intensities of bands corresponding to 200 ng, 400 ng and 600 ng of the quantification reference provided for the electrophoresis.
The catalytic efficiency of each enzyme was calculated based on the Michaelis-Menten kinetic equation.
It is known that, in FIG. 1, the reciprocal of each intercept with the x-axis, multiplied with −1, represents a km value (mmol/L) and the reciprocal of each intercept with the y-axis represents a Vmax value (U/mg), the maximum rate of reaction.
The catalytic ability per molecule of the enzyme (kcat) can be calculated from the Vmax and the molecular weight of the enzyme. Table 5 indicates the result of the calculation of catalytic efficiency (kcat/km), which is an index representing the catalytic ability of an enzyme, based on the obtained kcat and km values.

[3] = Reactivity comparison of L-pipecolic acid 5-hydroxylases, substrate L-proline (Example 4); details: for Relative activity, Substrate: L-proline (hydroxy-L-proline-producing activity, 100 = hydroxy-L-pipecolic acid-producing activity): 10 mmol/L substrate, 30° C., 30 minutes; for hydroxy-L-proline detected from the reaction solution: Example 4, 10 mmol/L L-proline, in words
Experimental: (§1) The detection of the products was based on the absorbance at a wavelength of 340 nm.
(§2) The activity values were evaluated by the amount of a product per gram of total protein (U/g-protein).

[4] = 5-hydroxy-L-pipecolic acid-producing activity of McPH mutants (Example 6); assay type: biochemical; details: for Relative activity (5-hydroxy-L-pipecolic acid-producing activity, wild type = 100): Table 10, double and triple mutants
From the text: Each of the obtained plasmids was used to transform E. coli (Eschelichia coli) BL21 (DE3) (manufactured by Invitrogen) according to a conventional method and thus to obtain recombinant E. coli strains expressing the respective mutants.
Furthermore, the combination effect of the respective mutations was examined in the mutations corresponding to McPHm2, McPHm3, and McPHm9, each of which was effective to improve the activity. A plasmid expressing a double mutant (McPHm10) with substitutions of phenylalanine to tyrosine at position 5 and cysteine to alanine at position 23, and a plasmid expressing a triple mutant, which is derived from the double mutant and further has a substitution of aspartic acid to glutamic acid at position 282, were constructed. Then, recombinant E. coli strains were produced according to the method described above, and the resulting enzyme solutions were used to evaluate the 5-hydroxy-L-pipecolic acid-producing activity.

[5] = Reactivity comparison of L-pipecolic acid 5-hydroxylases, substrate L-pipecolic acid (Example 4); details: 10 mmol/L substrate, 30° C., 30 minutes; hydroxy-L-pipecolic acid-producing activity set to 100
Experimental: as §1, §2

[6] = Hydroxylation activity of McPH mutants with L-proline as substrate (Example 6); assay type: biochemical; details: method of Example 4, in words
[7] = Catalytic efficiency (kcat/Km) of L-pipecolic acid hydroxylases with L-pipecolic acid (Example 3); assay type: biochemical; details: in words

B1: McPH: amino acid hydroxylase from Micromonospora chokoriensis, GenBank WP_030487089, SEQ ID NO: 2 (protein, listed as Micromonospora chokoriensis)
chain: MRTHFVGEVALDLARLEADLATCRSLEWSEAYSDYVFGGSWKSCMLWAPGGDAGDGVVTDYAYDRSAGFTPHAERLPYLAELIRETADLDRLNFARLALVTNSVIIPHRDLLELSDLPDEARNEHRMHIPLATNDNCFFNEDNVVYRMRRGEVWFLDASRIHSVAVLTAQPRIHLMLDFVDTPGAGSFTRVAGGGVEAGIPVDRIVTRPPLGDDERADLFGVAPLLSMDTFDEVFSIVIKKHFRRDGGSDFVWDTMLELAAKSPDPAVLPHTEELRKHYTLDRSA
Accumulation of (4S)-hydroxy-L-proline ([1]; in words): No accumulation of (4S)-hydroxy-L-proline was confirmed | Accumulation amount of (4S)-hydroxy-L-proline [1]: 0 mmol/L | Accumulation amount of (5S)-Hydroxy-L-pipecolic acid [1]: 23.5 mmol/L | Accumulation amount of L-pipecolic acid [1]: 1.8 mmol/L | Conversion of the substrate to (5S)-hydroxy-L-pipecolic acid ([1]; incubation for 120 hours, in words): almost the entire amount of the substrate was allowed to convert to (5S)-hydroxy-L-pipecolic acid | hydroxy-L-proline detected from the reaction solution [2]: no hydroxy-L-proline was detected | Activity, Substrate: L-proline (cell spanning Km to kcat/Km) ([2]; in words): (No activity ) | Relative activity, Substrate: L-proline (hydroxy-L-proline-producing activity, 100 = hydroxy-L-pipecolic acid-producing activity) [3]: 0% | hydroxy-L-proline detected from the reaction solution [3]: No hydroxy-L-proline was detected | Relative activity (5-hydroxy-L-pipecolic acid-producing activity, wild-type McPH = 100%) ([4]; Table 9, single mutants, U/g-protein basis, method of Example 4): 100% | Relative activity (5-hydroxy-L-pipecolic acid-producing activity, wild type = 100) [4]: 100 | Relative activity, Substrate: L-pipecolic acid [5]: 100%

B2: McPHm11: McPH triple mutant F5Y, C23A, D282E; SEQ ID NO: 20 (protein, listed as Micromonospora chokoriensis)
chain: MRTHYVGEVALDLARLEADLATARSLEWSEAYSDYVFGGSWKSCMLWAPGGDAGDGVVTDYAYDRSAGFTPHAERLPYLAELIRETADLDRLNFARLALVTNSVIIPHRDLLELSDLPDEARNEHRMHIPLATNDNCFFNEDNVVYRMRRGEVWFLDASRIHSVAVLTAQPRIHLMLDFVDTPGAGSFTRVAGGGVEAGIPVDRIVTRPPLGDDERADLFGVAPLLSMDTFDEVFSIVIKKHFRRDGGSDFVWDTMLELAAKSPDPAVLPHTEELRKHYTLERSA
Hydroxylation activity with L-proline as substrate [6]: virtually no activity against proline | Relative activity (5-hydroxy-L-pipecolic acid-producing activity, wild type = 100) [4]: 314 | Activity compared with that of the wild-type enzyme ([4]; in words): three or more times higher

B3: CaPH: L-proline cis-4-hydroxylase from Catenulispora acidiphila NBRC102108, GenBank WP_012787640, SEQ ID NO: 6 (protein, listed as Catenulispora acidiphila)
chain: MRTQYVAALELDEGRLAKDLETSASFNYSEAYSNYLIGGPWKSAMLYSAGGDAGDGLLTDYDYRQSSDFTDYGRQMPYLQELISTSVDLSRLTFVRLARFAKSVIVPHRDFLELEEIPEDKRSAHRLHIPLATHEECFFSEDNVVYRMRAGELWYFDASRIHSVVSFAEEPRIHLIFDFADRPGAGSLVTVPGEPEGAGVPAASAVDRPQLSDAERAALARLADVLTMDTFSEIFSVLVKKHFRRDGGEHFVWDTLTALARACPDPAVLPHTQELRRYFTLERPSGSGQA
Accumulation of (4S)-hydroxy-L-proline ([1]; in words): no accumulation of (4S)-hydroxy-L-proline is confirmed | Accumulation amount of (4S)-hydroxy-L-proline [1]: 0 mmol/L | Accumulation amount of (5S)-Hydroxy-L-pipecolic acid [1]: 0.8 mmol/L | Accumulation amount of L-pipecolic acid [1]: 18.8 mmol/L | hydroxy-L-proline detected from the reaction solution [2]: much amount of hydroxy-L-proline was detected | Relative activity, Substrate: L-proline (hydroxy-L-proline-producing activity, 100 = hydroxy-L-pipecolic acid-producing activity) [3]: 583% | hydroxy-L-proline detected from the reaction solution [3]: much amount of hydroxy-L-proline was detected | Relative activity, Substrate: L-pipecolic acid [5]: 100% | Activity, Substrate: L-pipecolic acid (cell spanning Km to kcat/Km) [7]: (No activity )
